Paper PMC5428419

Molecular target: biotinylated sRAGE from transgenic silkworms co-expressing BirA and fed biotin bait (human) (UniProt Q15109)
Assay: SPR; Biacore 2000; biotinylated sRAGE on SA sensor chip via the C-terminal biotin, about 560 RU; F-AGEs 0.25-4 uM injected, single-cycle kinetics, 30 uL/min, 25 C, PBS (-); 1:1 Langmuir model

Sequence of UniProt Q15109 (Q15109 23-332): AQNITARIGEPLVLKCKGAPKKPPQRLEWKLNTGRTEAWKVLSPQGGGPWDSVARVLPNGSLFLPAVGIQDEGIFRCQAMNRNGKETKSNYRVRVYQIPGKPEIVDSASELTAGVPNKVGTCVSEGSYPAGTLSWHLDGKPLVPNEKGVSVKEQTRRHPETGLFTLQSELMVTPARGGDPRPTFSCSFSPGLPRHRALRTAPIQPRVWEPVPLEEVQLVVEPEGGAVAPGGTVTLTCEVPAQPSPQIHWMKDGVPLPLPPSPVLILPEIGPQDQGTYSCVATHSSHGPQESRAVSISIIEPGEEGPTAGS

Kd: 725 nM
koff: 0.00165 s⁻¹
kon: 7250 M⁻¹ s⁻¹
Substance: fructose-BSA (fructose-derived AGE-BSA) (from UniProt P02769 25-607) (ligand)
